Results from patent US8524668.

Biological target: TLR2/TLR6 heterodimer
Assay: cell-based or functional assay

With CBLB613 (peptide) the NF-κB activation was 200.
CBLB617 (peptide) was tested, and the NF-κB activation was 100.
